{"source": "paper PMC3265130", "about": "(2011)", "binders": {"B1": {"name": "Su(Var)205 17-76 (protein)", "chain": "not shown"}}, "molecular_target": "T1, H3(1-15Y)K9me3 (Homo sapiens, H3K9me3)", "T1 chain": "ARTKQTARKSTGGKAY", "assay": "ITC"}
{"binder": "B1", "values": [{"measurement": "Kd", "result": 300, "unit": "nM"}]}
